Assay results published in article PMC9934072, “The mechanism of thia-Michael addition catalyzed by LanC enzymes” (Proceedings of the National Academy of Sciences of the …, 2023).
Square brackets hold non-standard residues; d marks the D form. Ends that are not written are not given here. Dhb = C/C=C(\N)C(=O)O

Legend:
[1] = biological target: (Z)-Dhb-containing 13-mer Erk peptide (DHTGFL-Dhb-EYVATR)
[2] = biological target: T1, LanCL1 Wild Type (human LanC-like protein 1) (human, UniProt O43813 1-399); experiment: fluorescence polarisation; competition: 20 μM LanCL1 WT, 20 nM fluorescein-Dha-Erk, acetyl peptide from 1000 μM in 2-fold dilutions; 15 min incubation; triplicates; dose-response fit, Ki = IC50/(1+[L]/Kd); conditions: both partners purified
T1 construct: LanC-like protein 1 (LanCL1), human; also called LanCL1 WT; WT-LanCL1; source: E. coli Rosetta 2 (DE3), purified (HisTrap Ni-NTA, PD-10 desalting)
T1 sequence (O43813 whole entry): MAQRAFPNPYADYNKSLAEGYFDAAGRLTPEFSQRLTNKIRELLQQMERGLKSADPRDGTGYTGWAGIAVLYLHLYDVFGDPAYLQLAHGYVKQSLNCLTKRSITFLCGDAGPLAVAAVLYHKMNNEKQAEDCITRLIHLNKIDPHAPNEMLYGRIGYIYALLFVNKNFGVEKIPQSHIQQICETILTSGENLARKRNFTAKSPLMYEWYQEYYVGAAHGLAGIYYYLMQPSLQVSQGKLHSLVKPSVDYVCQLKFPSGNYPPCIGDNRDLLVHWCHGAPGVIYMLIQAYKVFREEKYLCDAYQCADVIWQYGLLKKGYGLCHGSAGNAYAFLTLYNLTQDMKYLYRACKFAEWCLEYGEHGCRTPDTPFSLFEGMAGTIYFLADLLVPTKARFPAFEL

[3] = biological target: T2, human LanCL1, wild type (His6-LanCL1) (human, UniProt O43813 1-399); experiment: crystal structure; cocrystals of His6-LanCL1 with GSH soaked in precipitant solution with 2 to 5 mM Dhb-Erk peptide (30, 60 or 90 min); 1.91 Å; the crystal holds the product of GSH addition to the peptide; conditions: both partners purified
T2 construct: LanCL1 (LanC-like protein 1), human; The tag is named on the protein for crystallisation; for the fluorescence polarisation nothing is said of it; also called WT LanCL1; native LanCL1; source: E. coli Rosetta(DE3), pET15b, purified (HisTrap, Superdex 200)
T2 sequence (O43813 whole entry): as above

LanCL1 C264A (from UniProt O43813 1-399) (enzyme)
K (m,peptide) of GSH addition to (Z)-Dhb-Erk peptide (LC-MS initial rates, saturating GSH) [1]: 85 µM

LanCL1 C264A/H277A (from UniProt O43813 1-399) (enzyme)
K (m,peptide) of GSH addition to (Z)-Dhb-Erk peptide (LC-MS initial rates, saturating GSH) [1]: 240 µM

LanCL1 C264A/H277D (from UniProt O43813 1-399) (enzyme)
kcat/K (m,peptide) of GSH addition to (Z)-Dhb-Erk peptide; substrate saturation could not be achieved [1]: 6.17 M⁻¹ s⁻¹

LanCL1 C264A/H277K (from UniProt O43813 1-399) (enzyme)
kcat/K (m,peptide) of GSH addition to (Z)-Dhb-Erk peptide; substrate saturation could not be achieved [1]: 2.67 M⁻¹ s⁻¹

LanCL1 C264A/H277N (from UniProt O43813 1-399) (enzyme)
K (m,peptide) of GSH addition to (Z)-Dhb-Erk peptide (LC-MS initial rates, saturating GSH) [1]: 417 µM

LanCL1 C264A/H277Y (from UniProt O43813 1-399) (enzyme)
K (m,peptide) of GSH addition to (Z)-Dhb-Erk peptide (LC-MS initial rates, saturating GSH) [1]: 69 µM

B1: acetyl-Ala-Erk peptide (peptide)
peptide: Ac-DHTGFLAEYVATR
notes: Numbers count on: the synthetic 13-mer; Its preparation is not described; also called Ac-Ala-Erk
IC50 [2]: 850 ± 490 µM | Ki [2]: 849 ± 489 µM

B2: (Z)-Dhb-containing 13-mer Erk peptide (DHTGFL-Dhb-EYVATR) (peptide)
peptide: DHTGFL[Dhb]EYVATR
modifications: also: in the crystal Dhb reacted with GSH to form a methyllanthionine
notes: In PDB 8CZK density was seen only for the GFL-Dhb-EY segment, covalently joined to glutathione; also called Dhb-Erk; Dhb-Erk peptide
binding result [3]: binds
